Reference: article PMC9204493

Tests used:
Test in all cases: SEC-MALS; Superose 6 Increase 10/300, 1x PBS pH 7.4, 0.4 mL/min, non-denaturing; self-assembly of the fusion protein into the nanoparticle
[1] = molecular target: Encapsulin-pH1HA10 (Myxococcus xanthus) (UniProt Q1D6H4)
[2] = molecular target: MsDps2-pH1HA10 (Mycobacterium smegmatis)
[3] = molecular target: pH1HA10-Ferritin (Helicobacter pylori) (UniProt Q9ZLI1)

Substance: Encapsulin-pH1HA10 (from UniProt Q1D6H4 1-287)
- stoichiometry N [1]: 180

Substance: MsDps2-pH1HA10
- stoichiometry N [2]: 12

Substance: pH1HA10-Ferritin (from UniProt Q9ZLI1 1-163)
- stoichiometry N [3]: 24
